# From the supplement of paper PMC7877785
# ± gives the uncertainty stated by the source.
# Experiment: self-splicing fitness, log relative to wild type (ln ratio); higher = more splicing; Tetrahymena group I intron in knt gene, E. coli kanamycin selection, DiMSum; sequences stand for … in CUCUCU…GGAGGGAAAAGUUAUCAGGCAUGCACCUGGUAGCUAGUCUUUAAACCAAUAGAUUGCAUCGGUUUAAAAGGCAAGACCGUCAAAUUGCGGGAAAGGGGUCAACAGCCGUUCAGUACCAAGUCUCAGGGGAAACUUUGAGAUGGCCUUGCAAAGGGUAUGGUAAUAAGCUGACGGACAUGGUCCUAACCACGCAGCCAAGUCCUAAGUCAACAGAUCUUCUGUUGAUAUGGAUGCAGUUCACAGACUAAAUGUCGGUCGGGGAAGAUGUAUUCUUCUCAUAAGAUAUAGUCGGACCUCUCCUUAAUGGGAGCUAGCGGAUGAAGUGAUGCAACACUGGAGCCGCUGGGAACUAAUUUGUAUGCGAAAGUAUAUUGAUUAGUUUUGGAGUACUCGUGGUCG
# Procedure, shortened: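 Colonies from six replicate transformations of E. coli BL21(DE3) were pooled and amplicon-sequenced on an Illumina HiSeq 2500. The library placed an intron with all eight P1ex-region nucleotides randomised inside the knt kanamycin-resistance gene on pET-22b(+), and cells grew overnight at 37°C or 30°C on LB agar with or without 25 μg/mL kanamycin (plus 100 μg/mL carbenicillin, 50 μM IPTG, 0.2% rhamnose). Fitness is the DiMSum error-weighted combination of wild-type-normalised replicate fold changes, kanamycin versus none.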
Sequence,self-splicing fitness (ln) (30 °C),self-splicing fitness (ln) (37 °C)
CCUAAGCAAUAUUACGUUCG,-2.38 ± 0.091,-2.02 ± 0.11
UACAAGCAAUAUUACGGCGG,-0.215 ± 0.065,0.218 ± 0.084
UCCGAGCAAUAUUACGUCUG,-3.5 ± 0.24,–
GGUCAGCAAUAUUACGACGA,-0.308 ± 0.072,0.501 ± 0.11
UCCCAGCAAUAUUACGGCUG,–,-1.42 ± 0.48
AUAAAGCAAUAUUACGACUG,-1.14 ± 0.085,-0.454 ± 0.098
AUCGAGCAAUAUUACGUGCA,-2.85 ± 0.21,-1.14 ± 0.13
GGAAAGCAAUAUUACGUAUC,-2.09 ± 0.18,-1.01 ± 0.15
GAAUAGCAAUAUUACGGCUC,0.451 ± 0.09,0.374 ± 0.14
UUGAAGCAAUAUUACGACGA,0.302 ± 0.12,0.04 ± 0.14
CCGUAGCAAUAUUACGAGCG,-0.86 ± 0.12,-0.719 ± 0.15
UGACAGCAAUAUUACGAGUC,-3.94 ± 0.23,-3.33 ± 0.32
AGAGAGCAAUAUUACGCAAU,-3.58 ± 0.43,-2.48 ± 0.29
AAUCAGCAAUAUUACGGGGC,-3.92 ± 0.33,-2.58 ± 0.29
UAACAGCAAUAUUACGUAAG,-1.46 ± 0.07,-1.25 ± 0.084
GUCAAGCAAUAUUACGGGUU,-3.26 ± 0.11,-2.31 ± 0.12
UGUCAGCAAUAUUACGAAAA,-1.06 ± 0.095,-0.75 ± 0.096
GUAAAGCAAUAUUACGUGGU,-3.26 ± 0.12,-1.11 ± 0.095
AGCGAGCAAUAUUACGUAGU,-4.11 ± 0.16,-1.11 ± 0.13
UUUAAGCAAUAUUACGAGCU,-2.94 ± 0.22,-0.0484 ± 0.17
UCAAAGCAAUAUUACGGUUG,-1.38 ± 0.086,-0.732 ± 0.12
CCAUAGCAAUAUUACGCGAC,-3.56 ± 0.13,-2.9 ± 0.18
GACAAGCAAUAUUACGGGUA,-0.935 ± 0.066,-0.82 ± 0.069
GUCGAGCAAUAUUACGGAGG,-3.76 ± 0.39,-2.17 ± 0.23
UUUCAGCAAUAUUACGCUUU,-2.69 ± 0.14,-1.52 ± 0.13

Sequence,self-splicing fitness (ln) (30 °C),self-splicing fitness (ln) (37 °C)
AUAAAGCAAUAUUACGGUUC,-2.17 ± 0.088,-0.743 ± 0.1
AGUAAGCAAUAUUACGACGC,-0.403 ± 0.15,0.541 ± 0.17
GUAAAGCAAUAUUACGCGAC,-0.509 ± 0.26,1.71 ± 0.45
UGGAAGCAAUAUUACGGGAA,-2.15 ± 0.21,-1.19 ± 0.16
GGGCAGCAAUAUUACGAGGC,-2.26 ± 0.29,-2.9 ± 0.37
UAACAGCAAUAUUACGUUAC,-3.91 ± 0.2,-3.09 ± 0.24
ACGUAGCAAUAUUACGCCAC,-4.5 ± 0.39,-2.54 ± 0.44
UGGGAGCAAUAUUACGAGGC,-2.02 ± 0.35,–
UACAAGCAAUAUUACGGGGC,-5.04 ± 0.34,-2.46 ± 0.17
GUAAAGCAAUAUUACGGCGU,-0.369 ± 0.069,0.409 ± 0.11
GCGGAGCAAUAUUACGGACU,-3.06 ± 0.35,-0.993 ± 0.19
CUGAAGCAAUAUUACGUUUG,-1.52 ± 0.061,-1.23 ± 0.099
CCUUAGCAAUAUUACGUACG,-2.45 ± 0.22,-2.2 ± 0.29
GGUGAGCAAUAUUACGCUCU,-3.87 ± 0.42,-2.42 ± 0.41
UGGAAGCAAUAUUACGGAAG,-1.69 ± 0.12,-1.46 ± 0.17
AGUAAGCAAUAUUACGACCU,0.329 ± 0.11,0.451 ± 0.14
GUACAGCAAUAUUACGUCGG,-3.45 ± 0.27,-2.4 ± 0.25
CCAUAGCAAUAUUACGGGGA,-2.97 ± 0.18,-2.68 ± 0.22
UCCGAGCAAUAUUACGUCGC,-3.15 ± 0.28,-1.24 ± 0.3
UGUAAGCAAUAUUACGCUUA,-1.79 ± 0.15,-2.39 ± 0.19
GACAAGCAAUAUUACGAUAC,-1.73 ± 0.094,-1.28 ± 0.11
AGAGAGCAAUAUUACGGUAA,-2.95 ± 0.31,-2.28 ± 0.33
GACAAGCAAUAUUACGAGCA,-1.12 ± 0.093,-0.355 ± 0.092
GUCCAGCAAUAUUACGCGAG,-0.816 ± 0.088,-0.322 ± 0.1
ACUCAGCAAUAUUACGCAAA,-2.02 ± 0.12,-0.838 ± 0.11

Sequence,self-splicing fitness (ln) (30 °C),self-splicing fitness (ln) (37 °C)
ACAGAGCAAUAUUACGAUGA,-1.49 ± 0.17,-1.15 ± 0.16
AGCCAGCAAUAUUACGAAUC,–,-1.94 ± 0.39
GUGGAGCAAUAUUACGUAAG,-3.04 ± 0.26,-1.21 ± 0.47
CGCCAGCAAUAUUACGGGAG,-1.92 ± 0.072,-1.38 ± 0.094
UGAGAGCAAUAUUACGGCAA,-1.61 ± 0.33,-1.15 ± 0.18
CUAGAGCAAUAUUACGGGGG,-2.64 ± 0.24,-1.11 ± 0.27
UUGCAGCAAUAUUACGACAU,-0.522 ± 0.012,0.00633 ± 0.032
GGGGAGCAAUAUUACGUCUC,-1.64 ± 0.4,–
UCGUAGCAAUAUUACGCUCC,-2.47 ± 0.25,–
CAGAAGCAAUAUUACGUACG,-0.111 ± 0.089,0.665 ± 0.14
ACCAAGCAAUAUUACGUCUU,-4.21 ± 0.14,-2.59 ± 0.12
AGUAAGCAAUAUUACGGGUU,-2.54 ± 0.18,-2.68 ± 0.2
GCCGAGCAAUAUUACGUUUC,-3.12 ± 0.14,-2.28 ± 0.15
CUGAAGCAAUAUUACGUAGA,-4.28 ± 0.34,-1.75 ± 0.27
CCGUAGCAAUAUUACGUGUA,-3.5 ± 0.2,-3.25 ± 0.29
CUAUAGCAAUAUUACGUUGG,-3.71 ± 0.16,-2.79 ± 0.17
CGCGAGCAAUAUUACGACCC,-0.487 ± 0.44,–
GAUUAGCAAUAUUACGCCGC,-3.47 ± 0.24,-2.28 ± 0.21
AAGUAGCAAUAUUACGCCUU,-1.39 ± 0.12,-1.01 ± 0.19
CCAAAGCAAUAUUACGGGUC,-4.39 ± 0.23,-3.1 ± 0.22
AACGAGCAAUAUUACGUCCA,-2.92 ± 0.3,-1.92 ± 0.21
AUAGAGCAAUAUUACGGUGC,-1.96 ± 0.15,-2.21 ± 0.46
GGCAAGCAAUAUUACGUCGG,-3.42 ± 0.2,-2.47 ± 0.32
CGCGAGCAAUAUUACGGGGU,-4.28 ± 0.23,-2.95 ± 0.22
UGAUAGCAAUAUUACGCACU,-0.651 ± 0.14,-0.218 ± 0.14

Sequence,self-splicing fitness (ln) (30 °C),self-splicing fitness (ln) (37 °C)
GUUUAGCAAUAUUACGUGUA,-2.53 ± 0.092,-0.725 ± 0.077
GAGGAGCAAUAUUACGUGGG,-3.08 ± 0.36,-1.91 ± 0.4
GGCGAGCAAUAUUACGCACA,-0.586 ± 0.082,-0.225 ± 0.12
ACGUAGCAAUAUUACGUACA,-2.02 ± 0.25,-0.998 ± 0.22
UGGAAGCAAUAUUACGCAUG,-1.02 ± 0.096,-0.486 ± 0.12
GAGUAGCAAUAUUACGGCGU,-0.448 ± 0.17,0.221 ± 0.18
CCGGAGCAAUAUUACGAACG,-0.608 ± 0.16,0.0318 ± 0.19
GCGCAGCAAUAUUACGCGAA,-0.172 ± 0.065,-0.153 ± 0.083
UUUAAGCAAUAUUACGUCAG,-0.728 ± 0.12,-0.571 ± 0.12
CUUGAGCAAUAUUACGUUGU,-3.73 ± 0.14,-2.94 ± 0.14
UCAGAGCAAUAUUACGGGGG,-2.66 ± 0.23,-3.15 ± 0.35
UGGCAGCAAUAUUACGACAC,–,-0.701 ± 0.31
GUCCAGCAAUAUUACGGAAU,-0.712 ± 0.079,0.0755 ± 0.094
CCACAGCAAUAUUACGAUGG,-4.02 ± 0.14,-2.5 ± 0.13
UCUGAGCAAUAUUACGGGCA,-3.41 ± 0.33,-2.49 ± 0.16
CUAGAGCAAUAUUACGCAUU,-3.2 ± 0.18,-2.2 ± 0.25
UUAUAGCAAUAUUACGGGCG,-1.4 ± 0.15,-1 ± 0.2
ACCCAGCAAUAUUACGCCUC,-1.05 ± 0.084,-0.0787 ± 0.11
GUAUAGCAAUAUUACGUGGC,-3.62 ± 0.33,-2.09 ± 0.28
AUGAAGCAAUAUUACGAGGA,-1.44 ± 0.14,-2.6 ± 0.2
UCCAAGCAAUAUUACGAUAA,-2.01 ± 0.11,-0.704 ± 0.11
AUGUAGCAAUAUUACGUCAA,-2.9 ± 0.3,-2.98 ± 0.35
